According to article PMC4877050:

Target: wild-type Bcl-xL (mouse full-length, adenovirus-expressed) (mouse) (UniProt Q64373)
Experiment: native gel or EMSA; Blue Native PAGE (4-16% Bis-Tris) of the mitochondrial fraction of adenovirus-transduced TKPTS cells, extracted with 1% n-dodecyl-β-D-maltoside; blots probed for Bcl-xL, then Bax

wild-type Bcl-xL (mouse full-length, adenovirus-expressed) (from UniProt Q64373-1 1-233) (natural protein)
stoichiometry N: 2
